The target of assay [1] is T1, Damb (DAMB) (Drosophila melanogaster, UniProt Q24563).
T1 sequence (Q24563 1-539): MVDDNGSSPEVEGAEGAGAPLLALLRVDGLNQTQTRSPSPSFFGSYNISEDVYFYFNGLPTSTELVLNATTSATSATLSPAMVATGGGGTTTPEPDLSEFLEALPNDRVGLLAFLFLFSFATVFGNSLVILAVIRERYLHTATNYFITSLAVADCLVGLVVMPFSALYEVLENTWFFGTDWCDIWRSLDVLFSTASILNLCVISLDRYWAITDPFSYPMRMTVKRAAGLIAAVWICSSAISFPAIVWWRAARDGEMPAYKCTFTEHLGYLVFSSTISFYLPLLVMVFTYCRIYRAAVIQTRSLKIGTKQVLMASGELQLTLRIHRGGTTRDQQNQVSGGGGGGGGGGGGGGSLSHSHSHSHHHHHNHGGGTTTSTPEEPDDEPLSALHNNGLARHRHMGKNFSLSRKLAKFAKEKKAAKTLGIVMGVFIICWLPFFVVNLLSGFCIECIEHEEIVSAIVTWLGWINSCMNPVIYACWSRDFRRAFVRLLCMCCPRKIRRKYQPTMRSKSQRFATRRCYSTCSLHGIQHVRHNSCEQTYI
Kind of assay: real-time BRET G protein activation assay, HEK293T/[…] cells. Format: cell-based.

For assay [2], the target named is Drosophila Gαs isoform A (Drosophila).
For assay [3], the target named is Drosophila Gαq isoform G (Drosophila).

Regarding `NCCc1ccc(O)c(O)c1` [dopamine], the midpoint of the response in assay [1], the EC50, lay at 56.7 ± 7.7 nM.

B1: Damb (DopAmine receptor expressed in Mushroom Bodies) (receptor)
chain: T1 sequence (Q24563 1-539)
B1: the rate of G protein activation (BRET, 100 μM DA, HEK293T/17 cells) came out at 0.46 s⁻¹ in assay [2] and 2.71 s⁻¹ in assay [3].

For the origin of these results see publication PMC6168074 (Cell reports, 2017).
